T1: FcγRIIb (human, UniProt P31994 43-217)
T1 construct: extracellular domain; Soluble extracellular domain with C-terminal His tag, used as analyte; also called FcgRIIb; CD32B; not shown: His tag at the C terminus
T1 sequence (looked up): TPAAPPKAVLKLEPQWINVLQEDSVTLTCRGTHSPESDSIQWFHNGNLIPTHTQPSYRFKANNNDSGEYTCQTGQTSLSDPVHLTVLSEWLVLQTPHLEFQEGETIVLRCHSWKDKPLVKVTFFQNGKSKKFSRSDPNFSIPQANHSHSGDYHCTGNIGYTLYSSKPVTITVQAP

T2: FcγRIIb extracellular domain with C-terminal His tag (human, UniProt P31994 43-217)
T2 construct: extracellular domain; also called 2b; FcgRIIb; not shown: His tag at the C terminus
T2 sequence (looked up): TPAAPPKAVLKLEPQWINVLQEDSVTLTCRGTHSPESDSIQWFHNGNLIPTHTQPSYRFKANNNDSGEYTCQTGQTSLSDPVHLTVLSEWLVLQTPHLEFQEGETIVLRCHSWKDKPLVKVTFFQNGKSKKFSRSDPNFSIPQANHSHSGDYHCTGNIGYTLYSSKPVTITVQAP


Columns and labels:
[1] = molecular target: T3, FcγRIa (human, UniProt P12314 16-292); test: SPR (Biacore), captured antibody, FcγR as analyte, relative binding
T3 construct: extracellular domain; Soluble extracellular domain with C-terminal His tag, used as analyte; also called FcgRI; CD64; not shown: His tag at the C terminus
T3 sequence (P12314 16-292): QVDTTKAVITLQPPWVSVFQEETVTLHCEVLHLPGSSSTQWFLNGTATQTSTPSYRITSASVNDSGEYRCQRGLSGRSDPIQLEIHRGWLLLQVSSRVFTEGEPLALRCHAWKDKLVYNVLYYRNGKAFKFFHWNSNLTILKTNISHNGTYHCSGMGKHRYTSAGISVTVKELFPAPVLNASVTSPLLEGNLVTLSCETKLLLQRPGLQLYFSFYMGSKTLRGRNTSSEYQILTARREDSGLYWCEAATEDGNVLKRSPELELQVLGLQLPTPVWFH

[2] = molecular target: T1, FcγRIIb; test: as above
[3] = molecular target: T4, FcγRIIIa extracellular domain with C-terminal His tag (human, UniProt P08637 17-208); test: SPR (Biacore), relative to GpH7-A5/GpH7-B3/GpL16-k0 = 100
T4 construct: extracellular domain; also called 3a; FcgRIIIa; not shown: His tag at the C terminus
T4 sequence (P08637 17-208): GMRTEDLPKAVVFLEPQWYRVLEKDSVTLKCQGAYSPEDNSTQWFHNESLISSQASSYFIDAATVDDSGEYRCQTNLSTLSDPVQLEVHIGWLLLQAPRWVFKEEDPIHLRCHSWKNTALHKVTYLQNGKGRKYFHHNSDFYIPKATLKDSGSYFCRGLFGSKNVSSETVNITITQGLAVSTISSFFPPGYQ

[4] = molecular target: T2, FcγRIIb extracellular domain with …; test: as above

Binder	He/Con_1a [1]	He/Con_2b [2]	He/Con_3a [3]	He/Con_2b [4]
GpH7-A5/GpH7-B3 variant Y300_03V/GpL16-k0 (antibody, human IgG1, kappa, He Ab: mutation in one H chain only; also called He Ab) heavy 1: not shown heavy 2: not shown light: DIVMTQSPLSLPVTPGEPASISCQASESLVHSNRNTYLHWYLQKPGQSPQLLIYKVSNRFSGVPDRFSGSGSGTDFTLKISRVEAEDVGVYYCSQNTHVPPTFGQGTKVEIERTVAAPSVFIFPPSDEQLKSGTASVVCLLNNFYPREAKVQWKVDNALQSGNSQESVTEQDSKDSTYSLSSTLTLSKADYEKHKVYACEVTHQGLSSPVTKSFNRGEC	117 % of GpH7-A5/GpH7-B3/GpL16-k0	73.9 % of GpH7-A5/GpH7-B3/GpL16-k0		
GpH7-A5/GpH7-B3 variant Y300_05P/GpL16-k0 (antibody, human IgG1, kappa, He Ab: mutation in one H chain only; also called He Ab) heavy 1: not shown heavy 2: not shown light: DIVMTQSPLSLPVTPGEPASISCQASESLVHSNRNTYLHWYLQKPGQSPQLLIYKVSNRFSGVPDRFSGSGSGTDFTLKISRVEAEDVGVYYCSQNTHVPPTFGQGTKVEIERTVAAPSVFIFPPSDEQLKSGTASVVCLLNNFYPREAKVQWKVDNALQSGNSQESVTEQDSKDSTYSLSSTLTLSKADYEKHKVYACEVTHQGLSSPVTKSFNRGEC	60.2 % of GpH7-A5/GpH7-B3/GpL16-k0	7.3 % of GpH7-A5/GpH7-B3/GpL16-k0		
GpH7-A5/GpH7-B3 variant H268_20W/GpL16-k0 (antibody, human IgG1, kappa, IgG1, anti-glypican-3; also called He Ab) heavy 1: not shown heavy 2: not shown light: DIVMTQSPLSLPVTPGEPASISCQASESLVHSNRNTYLHWYLQKPGQSPQLLIYKVSNRFSGVPDRFSGSGSGTDFTLKISRVEAEDVGVYYCSQNTHVPPTFGQGTKVEIERTVAAPSVFIFPPSDEQLKSGTASVVCLLNNFYPREAKVQWKVDNALQSGNSQESVTEQDSKDSTYSLSSTLTLSKADYEKHKVYACEVTHQGLSSPVTKSFNRGEC			82.8 % (control = 100)	111 % (control = 100)
GpH7-A5/GpH7-B3 variant H268_01G/GpL16-k0 (antibody, human IgG1, kappa, IgG1, anti-glypican-3; also called He Ab) heavy 1: not shown heavy 2: not shown light: DIVMTQSPLSLPVTPGEPASISCQASESLVHSNRNTYLHWYLQKPGQSPQLLIYKVSNRFSGVPDRFSGSGSGTDFTLKISRVEAEDVGVYYCSQNTHVPPTFGQGTKVEIERTVAAPSVFIFPPSDEQLKSGTASVVCLLNNFYPREAKVQWKVDNALQSGNSQESVTEQDSKDSTYSLSSTLTLSKADYEKHKVYACEVTHQGLSSPVTKSFNRGEC			96.7 % (control = 100)	144 % (control = 100)
GpH7-A5/GpH7-B3 variant Y300_08L/GpL16-k0 (antibody, human IgG1, kappa, He Ab: mutation in one H chain only; also called He Ab) heavy 1: not shown heavy 2: not shown light: DIVMTQSPLSLPVTPGEPASISCQASESLVHSNRNTYLHWYLQKPGQSPQLLIYKVSNRFSGVPDRFSGSGSGTDFTLKISRVEAEDVGVYYCSQNTHVPPTFGQGTKVEIERTVAAPSVFIFPPSDEQLKSGTASVVCLLNNFYPREAKVQWKVDNALQSGNSQESVTEQDSKDSTYSLSSTLTLSKADYEKHKVYACEVTHQGLSSPVTKSFNRGEC	113 % of GpH7-A5/GpH7-B3/GpL16-k0	73.6 % of GpH7-A5/GpH7-B3/GpL16-k0		

Further lines, results first:

He/Con_1a [1]	He/Con_2b [2]	He/Con_3a [3]	He/Con_2b [4]	Binder
112 % of GpH7-A5/GpH7-B3/GpL16-k0	55.6 % of GpH7-A5/GpH7-B3/GpL16-k0			GpH7-A5/GpH7-B3 variant Y300_14T/GpL16-k0 (antibody, human IgG1, kappa, He Ab: mutation in one H chain only; also called He Ab) heavy 1: not shown heavy 2: not shown light: DIVMTQSPLSLPVTPGEPASISCQASESLVHSNRNTYLHWYLQKPGQSPQLLIYKVSNRFSGVPDRFSGSGSGTDFTLKISRVEAEDVGVYYCSQNTHVPPTFGQGTKVEIERTVAAPSVFIFPPSDEQLKSGTASVVCLLNNFYPREAKVQWKVDNALQSGNSQESVTEQDSKDSTYSLSSTLTLSKADYEKHKVYACEVTHQGLSSPVTKSFNRGEC
111 % of GpH7-A5/GpH7-B3/GpL16-k0	87 % of GpH7-A5/GpH7-B3/GpL16-k0			GpH7-A5/GpH7-B3 variant Y300_16H/GpL16-k0 (antibody, human IgG1, kappa, He Ab: mutation in one H chain only; also called He Ab) heavy 1: not shown heavy 2: not shown light: DIVMTQSPLSLPVTPGEPASISCQASESLVHSNRNTYLHWYLQKPGQSPQLLIYKVSNRFSGVPDRFSGSGSGTDFTLKISRVEAEDVGVYYCSQNTHVPPTFGQGTKVEIERTVAAPSVFIFPPSDEQLKSGTASVVCLLNNFYPREAKVQWKVDNALQSGNSQESVTEQDSKDSTYSLSSTLTLSKADYEKHKVYACEVTHQGLSSPVTKSFNRGEC
112 % of GpH7-A5/GpH7-B3/GpL16-k0	84.1 % of GpH7-A5/GpH7-B3/GpL16-k0			GpH7-A5/GpH7-B3 variant Y300_20W/GpL16-k0 (antibody, human IgG1, kappa, He Ab: mutation in one H chain only; also called He Ab) heavy 1: not shown heavy 2: not shown light: DIVMTQSPLSLPVTPGEPASISCQASESLVHSNRNTYLHWYLQKPGQSPQLLIYKVSNRFSGVPDRFSGSGSGTDFTLKISRVEAEDVGVYYCSQNTHVPPTFGQGTKVEIERTVAAPSVFIFPPSDEQLKSGTASVVCLLNNFYPREAKVQWKVDNALQSGNSQESVTEQDSKDSTYSLSSTLTLSKADYEKHKVYACEVTHQGLSSPVTKSFNRGEC
107 % of GpH7-A5/GpH7-B3/GpL16-k0	51.6 % of GpH7-A5/GpH7-B3/GpL16-k0			GpH7-A5/GpH7-B3 variant Y300_11K/GpL16-k0 (antibody, human IgG1, kappa, He Ab: mutation in one H chain only; also called He Ab) heavy 1: not shown heavy 2: not shown light: DIVMTQSPLSLPVTPGEPASISCQASESLVHSNRNTYLHWYLQKPGQSPQLLIYKVSNRFSGVPDRFSGSGSGTDFTLKISRVEAEDVGVYYCSQNTHVPPTFGQGTKVEIERTVAAPSVFIFPPSDEQLKSGTASVVCLLNNFYPREAKVQWKVDNALQSGNSQESVTEQDSKDSTYSLSSTLTLSKADYEKHKVYACEVTHQGLSSPVTKSFNRGEC
111 % of GpH7-A5/GpH7-B3/GpL16-k0	53.9 % of GpH7-A5/GpH7-B3/GpL16-k0			GpH7-A5/GpH7-B3 variant Y300_13S/GpL16-k0 (antibody, human IgG1, kappa, He Ab: mutation in one H chain only; also called He Ab) heavy 1: not shown heavy 2: not shown light: DIVMTQSPLSLPVTPGEPASISCQASESLVHSNRNTYLHWYLQKPGQSPQLLIYKVSNRFSGVPDRFSGSGSGTDFTLKISRVEAEDVGVYYCSQNTHVPPTFGQGTKVEIERTVAAPSVFIFPPSDEQLKSGTASVVCLLNNFYPREAKVQWKVDNALQSGNSQESVTEQDSKDSTYSLSSTLTLSKADYEKHKVYACEVTHQGLSSPVTKSFNRGEC

Reference: patent publication US20150344570A1 (published 2015)
